Data as given in US20230365709A1 (published 2023).
Numbering of substitutions follows the chain as printed.

Key:
[1] = molecular target: T1, recombinant human CD64 expressed on the surface of CHO cells (human, UniProt P12314 16-374); assay: flow cytometry, CHO-huCD64 cells, apparent KD; SD 8.7
T1 construct: whole, on cells; also called huCD64
Method: (§1) The CHO cells were incubated with serial dilutions of the indicated trispecific constructs and control constructs at 37° C., and cell surface bound antibodies were detected by FITC-conjugated goat anti-human IgG Fc and flow cytometric analysis. Measured median fluorescence intensity values were used to calculate apparent affinities (KD) by non-linear regression.

[2] = molecular target: T2, recombinant human CD32A expressed on the surface of CHO cells (human, UniProt P12318 34-317); assay: flow cytometry, CHO-huCD32A cells, apparent KD; SD 118.9
T2 construct: whole, on cells; also called huCD32A
T2 sequence (looked up): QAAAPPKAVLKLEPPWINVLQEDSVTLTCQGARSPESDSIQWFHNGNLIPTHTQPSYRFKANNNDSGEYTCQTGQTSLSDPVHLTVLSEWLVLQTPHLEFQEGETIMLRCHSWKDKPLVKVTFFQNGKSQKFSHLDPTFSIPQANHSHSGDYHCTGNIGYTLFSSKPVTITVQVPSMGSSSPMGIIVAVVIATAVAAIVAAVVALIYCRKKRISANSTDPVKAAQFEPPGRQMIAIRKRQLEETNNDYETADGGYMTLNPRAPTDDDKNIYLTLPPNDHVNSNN
Method: as §1

[3] = molecular target: T1, recombinant human CD64 expressed on the …; assay: flow cytometry, CHO-huCD64 cells, apparent KD; SD 3.4
Method: as §1

[4] = molecular target: T2, recombinant human CD32A expressed on …; assay: flow cytometry, CHO-huCD32A cells, apparent KD; SD 236.8
Method: as §1

[5] = molecular target: T1, recombinant human CD64 expressed on the …; assay: flow cytometry, receptor-expressing CHO cells
Method: as §1

[6] = molecular target: T1, recombinant human CD64 expressed on the …; assay: flow cytometry, CHO-huCD64 cells, apparent KD; SD 13.7
Method: as §1

[7] = molecular target: T2, recombinant human CD32A expressed on …; assay: flow cytometry, CHO-huCD32A cells, apparent KD; SD 719.6
Method: as §1

[8] = molecular target: T2, recombinant human CD32A expressed on …; assay: flow cytometry, CHO-huCD32A cells, apparent KD; SD n.a.
Method: as §1

[9] = molecular target: T1, recombinant human CD64 expressed on the …; assay: flow cytometry, CHO-huCD64 cells, apparent KD; SD 7.0
Method: as §1

[10] = molecular target: T3, recombinant human NKp46 expressed on the surface of CHO cells (human, UniProt O76036 22-304); assay: flow cytometry, CHO-huNKp46 cells, apparent KD; SD 6.2
T3 construct: whole, on cells; also called huNKp46; CD355
T3 sequence (O76036 22-304): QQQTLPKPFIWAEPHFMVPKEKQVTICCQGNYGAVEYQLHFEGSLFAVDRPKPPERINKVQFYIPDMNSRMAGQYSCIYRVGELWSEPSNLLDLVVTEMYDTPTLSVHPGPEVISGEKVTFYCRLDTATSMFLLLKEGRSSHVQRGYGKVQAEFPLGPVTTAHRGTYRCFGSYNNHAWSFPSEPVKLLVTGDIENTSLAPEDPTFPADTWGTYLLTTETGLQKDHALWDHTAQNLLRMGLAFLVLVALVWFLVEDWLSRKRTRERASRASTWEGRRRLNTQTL
Method: as §1

T1 sequence (P12314 16-374): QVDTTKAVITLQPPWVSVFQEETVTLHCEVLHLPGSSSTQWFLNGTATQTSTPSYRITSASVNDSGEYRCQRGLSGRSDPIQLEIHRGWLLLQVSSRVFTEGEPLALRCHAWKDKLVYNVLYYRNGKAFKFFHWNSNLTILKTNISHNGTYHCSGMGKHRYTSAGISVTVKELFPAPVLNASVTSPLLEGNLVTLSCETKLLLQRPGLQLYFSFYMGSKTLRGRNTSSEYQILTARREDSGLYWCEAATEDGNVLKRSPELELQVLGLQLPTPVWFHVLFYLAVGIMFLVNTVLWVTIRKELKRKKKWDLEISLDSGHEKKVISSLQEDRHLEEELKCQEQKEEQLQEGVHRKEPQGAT

B1: 1Fab-AFc-1Fab-1 (bispecific antibody, human IgG1, kappa)
chain 1: not shown
chain 2: EVQLVESGGGLVKPGGSLKLSCAASGYTFTSYVMHWVRQAPGKGLEWIGYINPYNDGTKYNEKFQGRVTISSDKSISTAYMELSSLRSEDTAMYYCARGTYYYGTRVFDYWGQGTLVTVSSASTKGPSVFPLAPSSKSTSGGTAALGCLVKDYFPEPVTVSWNSGALTSGVHTFPAVLQSSGLYSLSSVVTVPSSSLGTQTYICNVNHKPSNTKVDKKVEPKSCDKTHTCPPCPAPELLGGPSVFLFPPKPKDTLMISRTPEVTCVVVDVSHEDPEVKFNWYVDGVEVHNAKTKPREEQYNSTYRVVSVLTVLHQDWLNGKEYKCKVSNKALPAPIEKTISKAKGQPREPQVYTLPPSREEMTKNQVSLSCAVKGFYPSDIAVEWESNGQPENNYKTTPPVLDSDGSFFLVSKLTVDKSRWQQGNVFSCSVMHEALHNHYTQKSLSLSPGSTGSQVQLQQSGPELVKPGASVKMSCKASGYTFTDYVINWGKQRSGQGLEWIGEIYPGSGTNYYNEKFKAKATLTADKSSNIAYMQLSSLTSEDSAVYFCARRGRYGLYAMDYWGQGTSVTVSSRTVAAPSVFIFPPSDEQLKSGTASVVCLLNNFYPREAKVQWKVDNALQSGNSQESVTEQDSKDSTYSLSSTLTLSKADYEKHKVYACEVTHQGLSSPVTKSFNRGEC
chain 3: DIQMTQTTSSLSASLGDRVTISCRASQDISNYLNWYQQKPDGTVKLLIYYTSRLHSGVPSRFSGSGSGTDYSLTINNLEQEDIATYFCQQGNTRPWTFGGGTKLEIKASTKGPSVFPLAPSSKSTSGGTAALGCLVKDYFPEPVTVSWNSGALTSGVHTFPAVLQSSGLYSLSSVVTVPSSSLGTQTYICNVNHKPSNTKVDKKVEPKSCDKTH
notes: CD19, wt Fc, NKp46(NKp46-1); also called ComparatorA_1
Q: How did the Kd [1] turn out when B1 was run?
A: 22.7 nM

Q: And the Kd [2]?
A: 286 nM

B2: 1Fab-AFc-1Fab-5 (bispecific antibody, human IgG1, kappa)
chain 1: DIVMTQSPATLSLSPGERATLSCRSSKSLQNVNGNTYLYWFQQKPGQSPQLLIYRMSNLNSGVPDRFSGSGSGTEFTLTISSLEPEDFAVYYCMQHLEYPITFGAGTKLEIKRTVAAPSVFIFPPSDEQLKSGTASVVCLLNNFYPREAKVQWKVDNALQSGNSQESVTEQDSKDSTYSLSSTLTLSKADYEKHKVYACEVTHQGLSSPVTKSFNRGECDKTHTCPPCPAPELLGGPDVFLFPPKPKDTLMISRTPEVTCVVVDVSHEDPEVKFNWYVDGVEVHNAKTKPREEQYNSTYRVVSVLTVLHQDWLNGKEYKCKVSNKALPAPEEKTISKAKGQPREPQVYTLPPSREEMTKNQVSLWCLVKGFYPSDIAVEWESNGQPENNYKTTPPVLDSDGSFFLYSKLTVDKSRWQQGNVFSCSVMHEALHNHYTQKSLSLSPGK
chain 2: B1 chain 2 with S243D, I336E
chain 3: B1 chain 3
notes: CD19, Fc-enhanced Fc, NKp46(NKp46-1); also called ComparatorA_5
Q: For B2, which Kd [3] is on record?
A: 15.9 nM

Q: What about the Kd [4] of the same binder?
A: 1050 nM

B3: 2Fab-1scFv-AFc-1 (bispecific antibody, human IgG1, kappa)
heavy: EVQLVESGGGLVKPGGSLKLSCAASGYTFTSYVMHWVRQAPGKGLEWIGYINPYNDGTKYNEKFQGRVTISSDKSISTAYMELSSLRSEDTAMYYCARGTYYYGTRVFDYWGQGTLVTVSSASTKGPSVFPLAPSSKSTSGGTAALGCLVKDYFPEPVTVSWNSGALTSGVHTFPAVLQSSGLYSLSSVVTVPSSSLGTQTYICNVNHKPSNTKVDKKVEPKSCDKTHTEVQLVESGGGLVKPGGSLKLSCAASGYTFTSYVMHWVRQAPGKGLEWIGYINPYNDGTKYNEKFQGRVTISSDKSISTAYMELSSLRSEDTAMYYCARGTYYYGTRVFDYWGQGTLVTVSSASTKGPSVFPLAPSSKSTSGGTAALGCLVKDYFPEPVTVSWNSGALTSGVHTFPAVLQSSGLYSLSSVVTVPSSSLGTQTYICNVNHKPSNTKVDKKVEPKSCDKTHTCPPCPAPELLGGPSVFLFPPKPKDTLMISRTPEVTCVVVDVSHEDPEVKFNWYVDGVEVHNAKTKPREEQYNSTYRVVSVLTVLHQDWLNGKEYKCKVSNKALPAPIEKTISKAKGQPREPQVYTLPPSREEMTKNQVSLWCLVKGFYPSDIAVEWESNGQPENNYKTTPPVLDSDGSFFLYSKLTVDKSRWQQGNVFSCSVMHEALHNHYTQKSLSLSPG
light: DIVMTQSPATLSLSPGERATLSCRSSKSLQNVNGNTYLYWFQQKPGQSPQLLIYRMSNLNSGVPDRFSGSGSGTEFTLTISSLEPEDFAVYYCMQHLEYPITFGAGTKLEIKRTVAAPSVFIFPPSDEQLKSGTASVVCLLNNFYPREAKVQWKVDNALQSGNSQESVTEQDSKDSTYSLSSTLTLSKADYEKHKVYACEVTHQGLSSPVTKSFNRGEC
chain: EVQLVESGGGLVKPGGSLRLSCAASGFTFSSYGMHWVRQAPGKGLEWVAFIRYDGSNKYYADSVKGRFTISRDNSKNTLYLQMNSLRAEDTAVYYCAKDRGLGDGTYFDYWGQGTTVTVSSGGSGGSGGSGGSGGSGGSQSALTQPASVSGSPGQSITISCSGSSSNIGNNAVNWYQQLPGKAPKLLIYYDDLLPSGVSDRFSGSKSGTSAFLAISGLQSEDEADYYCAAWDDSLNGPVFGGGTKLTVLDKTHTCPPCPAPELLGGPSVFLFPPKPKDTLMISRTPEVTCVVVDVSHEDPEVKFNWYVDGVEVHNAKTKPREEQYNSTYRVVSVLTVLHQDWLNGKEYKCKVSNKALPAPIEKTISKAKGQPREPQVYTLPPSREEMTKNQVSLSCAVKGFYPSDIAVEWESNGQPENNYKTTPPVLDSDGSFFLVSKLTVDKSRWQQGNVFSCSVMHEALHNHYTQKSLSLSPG
notes: CD19, wt Fc, NKG2D(KYK-2.0)
Q: Does B3 bind [5]?
A: binds

B4: 2Fab-1scFv-AFc-4 (bispecific antibody, human IgG1, kappa)
heavy: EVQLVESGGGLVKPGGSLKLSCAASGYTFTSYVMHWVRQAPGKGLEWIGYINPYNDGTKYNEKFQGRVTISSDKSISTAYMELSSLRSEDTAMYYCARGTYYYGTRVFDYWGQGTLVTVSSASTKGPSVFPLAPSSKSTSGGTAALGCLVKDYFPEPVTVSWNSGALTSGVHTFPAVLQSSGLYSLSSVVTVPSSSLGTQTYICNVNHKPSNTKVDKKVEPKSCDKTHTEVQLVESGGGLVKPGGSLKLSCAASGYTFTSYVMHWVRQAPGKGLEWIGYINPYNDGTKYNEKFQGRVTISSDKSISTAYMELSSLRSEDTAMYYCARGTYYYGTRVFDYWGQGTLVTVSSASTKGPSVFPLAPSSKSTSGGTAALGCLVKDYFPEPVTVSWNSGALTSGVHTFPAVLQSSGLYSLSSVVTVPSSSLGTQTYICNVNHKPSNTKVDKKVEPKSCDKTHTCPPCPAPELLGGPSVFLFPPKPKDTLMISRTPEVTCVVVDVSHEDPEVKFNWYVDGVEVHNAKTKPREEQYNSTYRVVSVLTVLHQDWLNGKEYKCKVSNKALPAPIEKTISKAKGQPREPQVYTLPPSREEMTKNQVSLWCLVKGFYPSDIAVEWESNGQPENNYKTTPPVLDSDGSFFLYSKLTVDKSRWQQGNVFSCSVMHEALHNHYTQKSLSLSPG
light: B3 light
chain: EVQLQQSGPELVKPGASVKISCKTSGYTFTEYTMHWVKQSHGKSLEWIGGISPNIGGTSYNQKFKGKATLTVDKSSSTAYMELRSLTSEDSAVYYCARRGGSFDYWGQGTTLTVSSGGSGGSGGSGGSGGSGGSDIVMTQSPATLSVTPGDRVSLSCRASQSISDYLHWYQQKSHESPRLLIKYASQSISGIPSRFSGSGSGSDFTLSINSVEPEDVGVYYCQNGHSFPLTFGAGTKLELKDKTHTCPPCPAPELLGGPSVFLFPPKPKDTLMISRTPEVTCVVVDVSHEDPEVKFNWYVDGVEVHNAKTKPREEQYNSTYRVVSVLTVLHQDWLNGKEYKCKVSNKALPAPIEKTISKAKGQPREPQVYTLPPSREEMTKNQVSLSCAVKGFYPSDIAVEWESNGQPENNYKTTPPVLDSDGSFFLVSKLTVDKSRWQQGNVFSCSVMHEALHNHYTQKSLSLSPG
notes: CD19, wt Fc, NKp46(NKp46-3)
Q: Does B4 bind [5]?
A: binds

B5: 2Fab-1scFv-AFc-3 (bispecific antibody, human IgG1, kappa)
heavy: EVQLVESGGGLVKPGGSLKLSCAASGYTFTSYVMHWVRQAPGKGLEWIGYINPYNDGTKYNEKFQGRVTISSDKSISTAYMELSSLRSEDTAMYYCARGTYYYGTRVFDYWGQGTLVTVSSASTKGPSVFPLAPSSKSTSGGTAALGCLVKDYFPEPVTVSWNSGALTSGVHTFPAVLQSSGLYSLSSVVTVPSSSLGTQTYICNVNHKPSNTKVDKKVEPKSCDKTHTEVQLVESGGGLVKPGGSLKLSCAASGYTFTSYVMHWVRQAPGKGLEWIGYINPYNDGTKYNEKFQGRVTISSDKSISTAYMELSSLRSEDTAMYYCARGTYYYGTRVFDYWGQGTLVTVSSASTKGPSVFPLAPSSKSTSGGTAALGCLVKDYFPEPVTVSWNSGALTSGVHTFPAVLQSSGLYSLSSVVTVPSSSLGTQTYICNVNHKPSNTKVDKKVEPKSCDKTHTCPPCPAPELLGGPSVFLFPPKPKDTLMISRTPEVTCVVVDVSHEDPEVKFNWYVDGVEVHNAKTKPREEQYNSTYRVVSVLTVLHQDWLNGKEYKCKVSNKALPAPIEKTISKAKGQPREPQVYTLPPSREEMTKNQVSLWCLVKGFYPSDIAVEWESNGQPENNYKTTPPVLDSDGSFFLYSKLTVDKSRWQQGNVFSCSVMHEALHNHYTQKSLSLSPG
light: B3 light
chain: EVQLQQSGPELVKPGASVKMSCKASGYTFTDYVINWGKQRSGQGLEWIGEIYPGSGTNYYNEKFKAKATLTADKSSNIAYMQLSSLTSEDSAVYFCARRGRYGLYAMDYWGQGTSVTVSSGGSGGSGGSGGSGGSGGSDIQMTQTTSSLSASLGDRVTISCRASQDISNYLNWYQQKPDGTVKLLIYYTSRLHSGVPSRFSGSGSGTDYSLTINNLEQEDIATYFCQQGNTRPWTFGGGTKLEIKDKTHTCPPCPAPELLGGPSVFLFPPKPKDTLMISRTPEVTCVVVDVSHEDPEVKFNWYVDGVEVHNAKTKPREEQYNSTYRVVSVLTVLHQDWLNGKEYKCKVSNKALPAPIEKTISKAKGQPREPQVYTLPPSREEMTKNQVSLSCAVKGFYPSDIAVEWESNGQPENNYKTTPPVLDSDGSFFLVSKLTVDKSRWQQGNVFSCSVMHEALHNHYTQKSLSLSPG
notes: CD19, wt Fc, NKp46(NKp46-1)
Q: Which Kd [6] does the source give for B5 here?
A: 38.1 nM

Q: And the Kd [7]?
A: 682 nM

B6: IG-scDb-1 (other)
heavy: EVQLVESGGGLVKPGGSLKLSCAASGYTFTSYVMHWVRQAPGKGLEWIGYINPYNDGTKYNEKFQGRVTISSDKSISTAYMELSSLRSEDTAMYYCARGTYYYGTRVFDYWGQGTLVTVSSASTKGPSVFPLAPSSKSTSGGTAALGCLVKDYFPEPVTVSWNSGALTSGVHTFPAVLQSSGLYSLSSVVTVPSSSLGTQTYICNVNHKPSNTKVDKKVEPKSCDKTHTCPPCPAPEFEGGPSVFLFPPKPKDTLMISRTPEVTCVVVAVSHEDPEVKFNWYVDGVEVHNAKTKPREEQYGSTYRVVSVLTVLHQDWLNGKEYKCKVSNKALPAPIEKTISKAKGQPREPQVYTLPPSREEMTKNQVSLTCLVKGFYPSDIAVEWESNGQPENNYKTTPPVLDSDGSFFLYSKLTVDKSRWQQGNVFSCSVMHEALHNHYTQKSLSLSPGGGGGSGGGGSSYELTQPLSVSVALGQTARITCGGHNIGSKNVHWYQQKPGQAPVLVIYQDNKRPSGIPERFSGSNSGNTATLTISRAQAGDEADYYCQVWDNYNVLFGCGTKLTVLGGSGGSQVQLVESGGGLVKPGGSLRLSCAASGFTFSSYGMHWVRQAPGKGLEWVAFIRYDGSNKYYADSVKGRFTISRDNSKNTLYLQMNSLRAEDTAVYYCAKDRGLGDGTYFDYWGQGTTVTVSSGGSGGSGGSGGSGGSGGSQSALTQPASVSGSPGQSITISCSGSSSNIGNNAVNWYQQLPGKAPKLLIYYDDLLPSGVSDRFSGSKSGTSAFLAISGLQSEDEADYYCAAWDDSLNGPVFGGGTKLTVLGGSGGSQVQLVQSGAEVKKPGASVKVSCKASGYTFTSYYMHWVRQAPGQCLEWMGAIEPTYGSTSYAQKFQGRVTMTRDTSTSTVYMELSSLRSEDTAVYYCARGSAYYYDFADYWGQGTLVTVSS
light: B3 light
notes: trispecific construct: target CD19, effector domains CD16A(P2C47var50) and NKG2D(KYK-2.0)
Q: With B6 as the binder, how does the Kd [8] read?
A: 4090 nM

B7: 2Fab-1scFv-AFc-2 (bispecific antibody, human IgG1, kappa)
heavy: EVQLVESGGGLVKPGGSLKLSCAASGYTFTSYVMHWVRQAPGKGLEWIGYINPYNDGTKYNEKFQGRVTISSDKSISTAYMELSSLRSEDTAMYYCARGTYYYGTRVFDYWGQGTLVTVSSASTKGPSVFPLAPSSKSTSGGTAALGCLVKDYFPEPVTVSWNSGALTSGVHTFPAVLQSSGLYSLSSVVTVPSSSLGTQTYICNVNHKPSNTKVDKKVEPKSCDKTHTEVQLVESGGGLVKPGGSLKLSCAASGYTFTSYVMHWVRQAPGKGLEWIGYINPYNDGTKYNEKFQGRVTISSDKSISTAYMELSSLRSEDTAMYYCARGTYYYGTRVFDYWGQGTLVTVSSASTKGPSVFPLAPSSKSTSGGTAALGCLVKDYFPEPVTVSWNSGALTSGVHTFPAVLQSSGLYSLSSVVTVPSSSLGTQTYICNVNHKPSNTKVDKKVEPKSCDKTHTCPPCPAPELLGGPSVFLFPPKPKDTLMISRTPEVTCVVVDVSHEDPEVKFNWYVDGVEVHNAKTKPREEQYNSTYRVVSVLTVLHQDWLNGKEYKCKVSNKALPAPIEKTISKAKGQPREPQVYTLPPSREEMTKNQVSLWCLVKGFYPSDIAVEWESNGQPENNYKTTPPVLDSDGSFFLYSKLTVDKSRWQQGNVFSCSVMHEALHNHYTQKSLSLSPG
light: B3 light
chain: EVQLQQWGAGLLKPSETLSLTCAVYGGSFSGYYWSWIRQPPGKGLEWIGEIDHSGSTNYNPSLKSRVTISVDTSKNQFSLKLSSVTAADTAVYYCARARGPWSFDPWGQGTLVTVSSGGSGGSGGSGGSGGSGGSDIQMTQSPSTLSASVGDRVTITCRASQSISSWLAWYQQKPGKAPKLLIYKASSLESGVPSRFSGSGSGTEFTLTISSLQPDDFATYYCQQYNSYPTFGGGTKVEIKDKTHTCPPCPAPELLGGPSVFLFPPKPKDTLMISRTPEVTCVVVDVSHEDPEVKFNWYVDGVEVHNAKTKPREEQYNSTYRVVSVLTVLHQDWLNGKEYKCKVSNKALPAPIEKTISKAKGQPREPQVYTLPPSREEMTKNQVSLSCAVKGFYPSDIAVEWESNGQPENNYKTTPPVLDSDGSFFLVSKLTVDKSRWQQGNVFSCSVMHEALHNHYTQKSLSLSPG
notes: CD19, wt Fc, NKG2D(ADI-27743)
Q: Does B7 bind [5]?
A: binds

B8: 1Fab-AFc-1Fab-2 (bispecific antibody, human IgG1, kappa)
chain 1: not shown
chain 2: EVQLVESGGGLVKPGGSLKLSCAASGYTFTSYVMHWVRQAPGKGLEWIGYINPYNDGTKYNEKFQGRVTISSDKSISTAYMELSSLRSEDTAMYYCARGTYYYGTRVFDYWGQGTLVTVSSASTKGPSVFPLAPSSKSTSGGTAALGCLVKDYFPEPVTVSWNSGALTSGVHTFPAVLQSSGLYSLSSVVTVPSSSLGTQTYICNVNHKPSNTKVDKKVEPKSCDKTHTCPPCPAPELLGGPSVFLFPPKPKDTLMISRTPEVTCVVVDVSHEDPEVKFNWYVDGVEVHNAKTKPREEQYNSTYRVVSVLTVLHQDWLNGKEYKCKVSNKALPAPIEKTISKAKGQPREPQVYTLPPSREEMTKNQVSLSCAVKGFYPSDIAVEWESNGQPENNYKTTPPVLDSDGSFFLVSKLTVDKSRWQQGNVFSCSVMHEALHNHYTQKSLSLSPGSTGSEVQLQQSGPELVKPGASVKISCKTSGYTFTEYTMHWVKQSHGKSLEWIGGISPNIGGTSYNQKFKGKATLTVDKSSSTAYMELRSLTSEDSAVYYCARRGGSFDYWGQGTTLTVSSRTVAAPSVFIFPPSDEQLKSGTASVVCLLNNFYPREAKVQWKVDNALQSGNSQESVTEQDSKDSTYSLSSTLTLSKADYEKHKVYACEVTHQGLSSPVTKSFNRGEC
chain 3: DIVMTQSPATLSVTPGDRVSLSCRASQSISDYLHWYQQKSHESPRLLIKYASQSISGIPSRFSGSGSGSDFTLSINSVEPEDVGVYYCQNGHSFPLTFGAGTKLELKASTKGPSVFPLAPSSKSTSGGTAALGCLVKDYFPEPVTVSWNSGALTSGVHTFPAVLQSSGLYSLSSVVTVPSSSLGTQTYICNVNHKPSNTKVDKKVEPKSCDKTH
notes: CD19, wt Fc, NKp46(NKp46-3); also called ComparatorA_2
Q: What does the source list for B8?
A: Kd [9]: 23.9 nM; Kd [10]: 48 nM; Kd [8]: 1150 nM
